Numbering of substitutions follows the chain as printed.
T1: human CLDN6, endogenously expressed on cancer cell lines (human, UniProt P56747 1-220)
T1 construct: also called Endogenous CLDN6+; CLDN6 on ARK2, OVCA429, UMUC4 cells
T1 sequence: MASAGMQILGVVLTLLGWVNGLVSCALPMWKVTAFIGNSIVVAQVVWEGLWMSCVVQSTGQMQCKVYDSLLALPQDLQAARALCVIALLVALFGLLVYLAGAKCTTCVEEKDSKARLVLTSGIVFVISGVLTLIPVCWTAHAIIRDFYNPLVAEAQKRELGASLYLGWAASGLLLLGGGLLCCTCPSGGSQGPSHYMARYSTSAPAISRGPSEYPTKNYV

T2: mouse CLDN6 fused to GFP, expressed on engineered HEK293T cells (mouse, UniProt Q9Z262 1-219)
T2 construct: whole, on cells; also called HEK293T-CLDN6-mGFP Artificial CLDN6+ (mouse); murine CLDN6; not shown: GFP tag
T2 sequence (looked up): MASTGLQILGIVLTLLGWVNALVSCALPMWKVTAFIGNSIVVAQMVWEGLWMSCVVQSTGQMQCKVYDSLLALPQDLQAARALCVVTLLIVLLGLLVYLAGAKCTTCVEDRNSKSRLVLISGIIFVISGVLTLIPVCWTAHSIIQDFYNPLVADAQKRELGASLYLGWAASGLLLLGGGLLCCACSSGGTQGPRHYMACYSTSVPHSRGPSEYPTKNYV

B1: AB9-chim (antibody, V domains shown)
VH: EVQLQQSGPELVKPGASVKMSCKASGYRFTDYNMHWVKQSHGKSLEWIGYINPNNGGTNYNQNFKGKATLTVNKSSSTAYMELRSLTSEDSAAYYCARDYLYFFDCWGQGTTLTVSS
VL: DIQMTQSPASQSASLGESVTITCLASQTIGTWLAWYQQKPGKSPQLLIYAAASLADGVPSRFSGSGSGTRFSFKISSLQAEDFVSYYCQQLYSIPRTFGGGTKLEIK
notes: Parental antibody prior to humanization ('chim'); also called pre-humanized form of AB9
B2: AB11-2 (antibody, V domains shown)
VH: EVQLVESGGGLVQPGGSLRLSCAASGFTFSSFGMHWVRQAPGKGLEWVAYISSDSRTIYYADSVKGRFTISRDNAKNSLYLQMNSLRAEDTAVYYCARDYGRTYEAYWGQGTLVTVSS
VL: DIVMTQSPDSLAVSLGERATINCRASKSVSTSGYSYIHWYQQKPGQPPKLLIYLASNLESGVPDRFSGSGSGTDFTLTISSLQAEDVAVYYCQHSRELPLTFGQGTKLEIK
notes: Humanized; also called humanized AB 11-2
B3: AB11-3 (antibody, V domains shown)
VH: B2 VH
VL: B2 VL with M4L, L82V, I110L
notes: Humanized; also called humanized AB 11-3
B4: AB3-chim (antibody, V domains shown)
VH: EVKLEESGGGLVQPGGSMKLSCVASGFTFSNYWMNWVRQSPEKGLEWVAQIRLKSDNYATHYAESVKGRFTISRDDSKRSVYLQMNNLRAEDTGTYYCNDGPPSGCWGQGTTLIVSS
VL: DIQMTQSPASLSASVGETVTITCRISENIYSYLAWYQQKQGKSPQLLVYNAKILVEGVPSRFSGSGSGTQFSLKINSLQPEDFGNYYCQHHYTVPWTFGGGTKLEIK
notes: Parental antibody prior to humanization ('chim'); also called pre-humanized form of AB3
B5: AB9-4 (antibody, V domains shown)
VH: QVQLVQSGAEVKKPGASVKMSCKASGYRFTDYNMHWVRQAPGQGLEWIGYINPNNGGTNYAQKFQGRATLTVDTSTSTAYMELSSLRSEDTAVYYCARDYLYFFDCWGQGTLLTVSS
VL: DIQMTQSPSSLSASVGDRVTITCRASQTIGTWLAWYQQKPGKAPKLLIYAAASLADGVPSRFSGSGSGTDFTFTISSLQPEDFVTYYCQQLYSIPRTFGQGTKLEIK
notes: Humanized; also called humanized AB 9-4
B6: AB3-2 (antibody, V domains shown)
VH: EVQLLESGGGLVQPGGSMRLSCAASGFTFSNYWMNWVRQAPGKGLEWVAQIRLKSDNYATHYADSVKGRFTISRDDSKNTVYLQMNSLRAEDTGVYYCNDGPPSGCWGQGTLLTVSS
VL: DIQMTQSPSSLSASVGDRVTITCRISENIYSYLAWYQQKPGKAPKLLIYNAKILVEGVPSRFSGSGSGTDFTLTISSLQPEDFATYYCQHHYTVPWTFGQGTKLEIK
notes: Humanized; also called humanized AB 3-2
B7: AB3-3 (antibody, V domains shown)
VH: B6 VH
VL: B6 VL with I48V, A84G
notes: Humanized; also called humanized AB 3-3
B8: AB3-4 (antibody, V domains shown)
VH: B6 VH with C106Y
VL: B6 VL
notes: Humanized; full-length IgG; also called humanized AB 3-4
B9: AB3-5 (antibody, V domains shown)
VH: B6 VH with C106Y
VL: B6 VL with I48V, A84G
notes: Humanized; also called humanized AB 3-5
B10: AB18-6 (antibody, V domains shown)
VH: QVQLVQSGAEVKKPGASVKISCKASGYSFTGYNMNWVRQAPGQGLEWIGNIDPYYGGSTYAQKFQGRATLTVDTSTSTAYMELSSLRSEDTAVYYCARERSGYVFSAMDYWGQGTLVTVSS
VL: DIVMTQSPDSLAVSLGERVTMNCKSSQSVLFSSNQKNYLAWYQQKPGQPPKLLIYWASTRESGVPDRFSGSGSGTDFTLTISSVQAEDVAVYYCHQYLSSRTFGQGTKLEIK
notes: Humanized; also called humanized AB 18-6
B11: AB1-Chim (antibody, V domains shown)
VH: QVQLQQSAAELARPGASVKMSCKASGYTFTTYTMHWVKQRPGQGLEWIGFINPSSGYTDYNQKFKDRTTLTADKSSSTVYMQLSSLTSEDSAVYYCANGDYYVAYWGQGTLVTVSA
VL: QIVLTQSPAIMSASLGERVTMTCTASSSVSSTYFHWYQQKPGSSPKLWIYSTSNLASGVPRRFSGSASGTSYSLTISSMEAEDAATYYCHQYHRSPLTFGAGTKLELK
notes: Parental antibody prior to humanization ('chim'); also called pre-humanized form of AB1
B12: AB4-4 (antibody, V domains shown)
VH: QVQLVQSGAEVKKPGASVKMSCKASGYTFTSYTMHWIRQAPGQGLEWIGYINPSSTYTHYAQKFQGRATLTADTSTSTAYMELSSLRSEDTAVYYCSRGELGGFAYWGQGTLVTVSS
VL: DVVMTQSPLSLPVTLGQPASISCRSSQSLVHSDGNTYLNWYQQRPGQSPRLLIYKVSNRFSGVPDRFSGSGSGTDFTLKISRVEAEDVGVYYCSQSTHVPYTFGQGTKLEIK
notes: Humanized; also called humanized AB 4-4
B13: AB4-3 (antibody, V domains shown)
VH: B12 VH with M20V, I37V, I48M, A68V, L70M, A79V
VL: B12 VL
notes: Humanized; also called humanized AB 4-3
B14: AB4-5 (antibody, V domains shown)
VH: B12 VH with L45Q
VL: B12 VL
notes: Humanized; also called humanized AB 4-5
B15: AB1-7 (antibody, V domains shown)
VH: QVQLVQSGAEVKKPGASVKMSCKASGYTFTTYTMHWVRQAPGQGLEWIGFINPSSGYTDYAQKFQGRVTLTADTSTSTVYMELSSLRSEDTAVYYCANGDYYVAYWGQGTLVTVSS
VL: DIQLTQSPSSLSASVGDRVTMTCTASSSVSSTYFHWYQQKPGKAPKLLIYSTSNLASGVPSRFSGSGSGTDYTLTISSMQPEDAATYYCHQYHRSPLTFGQGTKLEIK
notes: Humanized; also called humanized AB 1-7
B16: AB1-6 (antibody, V domains shown)
VH: B15 VH
VL: B15 VL with L4M, M21I, M79L, A84F
notes: Humanized; also called humanized AB 1-6
B17: AB1-3 (antibody, V domains shown)
VH: B15 VH with M20V, I48M, L70M
VL: B15 VL with L4M, M21I, M79L, A84F
notes: Humanized; also called humanized AB 1-3
B18: AB1-8 (antibody, V domains shown)
VH: B15 VH
VL: B15 VL with L48W
notes: Humanized; also called humanized AB 1-8
B19: AB1-4 (antibody, V domains shown)
VH: B15 VH with M20V, I48M, L70M
VL: B15 VL
notes: Humanized; also called humanized AB 1-4
B20: AB1-5 (antibody, V domains shown)
VH: B15 VH with M20V, I48M, L70M
VL: B15 VL with L48W
notes: Humanized; also called humanized AB 1-5
B21: AB11-chim (antibody, V domains shown)
VH: DVQLVESGGGLVQPRGSRKLSCAASGFTFSSFGMHWVRQAPEKGLEWVAYISSDSRTIYYADTVKGRFTISRDNPTNTLFLQMTSLRSEDTAMYYCARDYGRTYEAYWGQGTLVTVSA
VL: DIVLTQSPASLAVSLGQRATISCRASKSVSTSGYSYIHWYQQKPGQPPKLLIYLASNLESGVPARFSGSGSGTDFTLNIHPVEEEDAATYYCQHSRELPLTFGAGTKLELK
notes: Parental antibody prior to humanization ('chim'); also called pre-humanized form of AB11

biological target: T1, human CLDN6, endogenously expressed on …; test: FACS, ARK2 cells, 1.5 ug Ab

FACS signal	Binder
4490	B1
1940	B2
1540	B3
29100	B4
1550	B5
33600	B6
54900	B7
1460	B8
2910	B9
1940	B10
51900	B11
1400	B12
1520	B13
1200	B14
11200	B15
7740	B16
10800	B17
17600	B18
10000	B19
22400	B20
1260	B21

biological target: T1, human CLDN6, endogenously expressed on …; test: FACS, ARK2 cells, 0.3 ug Ab

FACS signal	Binder
3510	B1
1400	B2
1320	B3
17100	B4
1120	B5
14700	B6
1160	B7
1320	B8
1280	B9
1390	B10
58800	B11
1050	B12
1190	B13
967	B14
4440	B15
2820	B16
2830	B17
5810	B18
3640	B19
7490	B20
1320	B21

biological target: T2, mouse CLDN6 fused to GFP, expressed on …; test: FACS, 293T clone with mouse CLDN6

FACS signal	Binder
7160	B2
5520	B3
67900	B4
1710	B5
31700	B6
23000	B7
1520	B8
783	B9
514000	B11
741	B12
671	B13
2000	B14
99700	B15
77600	B16
89300	B17
122000	B18
75900	B19
128000	B20
5490	B21

biological target: T1, human CLDN6, endogenously expressed on …; test: FACS, OVCA429 cells, 1.5 ug Ab

FACS signal	Binder
3570	B1
2690	B2
2200	B3
138000	B4
1110	B5
85900	B6
88700	B7
2960	B8
2950	B9
6750	B10
177000	B11
1200	B12
1160	B13
1350	B14
44700	B15
29900	B16
27500	B17
66000	B18
34600	B19
54300	B20
2440	B21

Reference: patent publication US20220177583A1 (University of California, published 2022)
